According to patent US7288256B1, “T cell epitopes of the major allergens from dermatophagoides (house dust mite)” (Merck Patent GmbH, priority 1991, dated 2007):

B1: Der p II: Group II protein allergen of Dermatophagoides pteronyssinus, immunoaffinity purified native form (protein)
chain: DQVDVKDCANHEIKKVLVPGCHGSEPCIIHRGKPFQLEAVFEANQNTKTAKIEIKASIDGLEVDVPGIDPNACHYMKCPLVKGQQYDIKYTWNVPKIAPKSENVVVTVKVMGDDGVLACAIATHAKIRD
B2: Der p I: Group I protein allergen of Dermatophagoides pteronyssinus, immunoaffinity purified native form (protein)
chain: TNACSINGNAPAEIDLRQMRTVTPIRMQGGCGSCWAFSGVAATESAYLAHRNQSLDLAEQELVDCASQHGCHGDTIPRGIEYIQHNGVVQESYYRYVAREQSCRRPNAQRFGISNYCQIYPPNANKIREALAQTHSAIAVIIGIKDLDAFRHYDGRTIIQRDNGYQPNYHAVNIVGYSNAQGVDYWIVRNSWDTNWGDNGYGYFAANIDLMMIEEYPYVVIL
B3: biochemically purified Der f II: Group II protein allergen of Dermatophagoides farinae, immunoaffinity purified native form (protein)
chain: DQVDVKDCANNEIKKVMVDGCHGSDPCIIHRGKPFTLEALFDANQNTKTAKTEIKASLDGLEIDVPGIDTNACHFMKCPLVKGQQYDAKYTWNVPKIAPKSENVVVTVKLVGDNGVLACAIATHAKIRD
B4: recombinant Der f II: recombinant Der f II expressed in E. coli as His6 fusion (protein)
chain: MGHHHHHHEFDQVDVKDCANNEIKKVMVDGCHGSDPCIIHRGKPFTLEALFDANQNTKTAKTEIKASLDGLEIDVPGIDTNACHFMKCPLVKGQQYDAKYTWNVPKIAPKSENVVVTVKLVGDNGVLACAIATHAKIRD

Columns and labels:
[1] = system: PBMC from mite-allergic patient; experiment: Primary PBMC proliferation (3H-thymidine) to Der p I/Der p II proteins and peptides, Example IV; type: cell-based, human; details: for CPM ± S.D.: 7 days culture; for S.I.: CPM with antigen / CPM medium only
Protocol: Peripheral blood mononuclear cells (PBMC) were purified by Ficoll-Hypaque centrifugation of a peripheral blood specimen from mite-allergic patient and were assayed for proliferation in response to various antigens, i.e., affinity-purified Der p I, affinity purified […], various Der p I and Der p II peptides. For assay, 5×10^4 PBMC were cultured in triplicate microwells for 7 days at 37° C. in the presence of various concentrations of antigen in 200 μl RPMI-1640 containing 5% human AB serum. Each well then received 1 μCi tritiated thymidine for 16 hours. The counts incorporated were collected onto glass fiber filters and processed for liquid scintillation counting. […] The CPM+/− standard deviation are shown. The stimulation index of each response (S.I.) is the ratio of the ^3H-thymidine CPM incorporated by the cells in response to antigen divided by the ^3H-thymidine CPM incorporated by cells in medium only. […] Thus, these peptides contain Der p I or Der p II T cell epitopes recognized by T cells from this particular allergic patient.

human IgE = experiment: Direct binding ELISA of IgE to mite allergen proteins and peptides (Examples XIII, XV)
Protocol: Corning assay plates (#25882-96) were coated with 5 μg/ml of each coating antigen listed in FIGS. 19, 20 and 21 at […] and incubated overnight at 4° C. The coating antigens were removed and the wells are blocked with 0.5% gelatin in PBS, 300 μl/well for 2 hours at room temperature. […] Louis, Mo.) and 100 μl/well a\was added and incubated overnight at 4° C. (plasma dilutions were tested in duplicate). The second antibody (biotinylated goat anti-Human IgE, 1:1000, Kirkegaard & Perry Laboratories Inc, Gaithersburg, Md.), was added at 100 μl/well for one hour at room temperature. This solution was removed and streptavidin-HRPO, 1:10000, (Southern Biotechnology Associates, Inc., Birmingham, Ala.) was then added at 100 μl/well for one hour at room temperature (all wells are washed three times with PBS-Tween between each incubation step). TMB Membrane Peroxidase Substrate system (Kirkegaard & Perry Laboratories) was freshly miced, and added at […]. The color was allowed to develop for 2-5 minutes. The reaction was stopped by the addition of […] of 1M phosphoric acid. Plates were read on a Microplate IL310 Autoreader (Biotech Instruments, Winooski, Vt.) with a 450 nm filter. The absorbance levels of duplicate wells were averaged. The order of coating antigens listed vertically in these figure legends corresponds in […] from left to right to the coating antigens listed for each histogram.

[2] = plasma from 19 mite-allergic patients and a pool of 18 additional patients, Example XV
[3] = pooled human plasma from 20 mite skin test positive patients, coating antigen 5 μg/ml, FIGS. 19-21

Molecule	CPM ± S.D. ([1]; antigen 10 μg/ml)	S.I. ([1]; antigen 10 μg/ml)	CPM ± S.D. ([1]; antigen 30 μg/ml)	S.I. ([1]; antigen 30 μg/ml)	CPM ± S.D. ([1]; antigen 100 μg/ml)	S.I. ([1]; antigen 100 μg/ml)	IgE binding in direct ELISA (human IgE; [2])	IgE binding in direct ELISA (human IgE; [3])
B1	1113 ± 35 CPM	1.0	2104 ± 43 CPM	2.0	1057 ± 27 CPM	1.0	All samples did contain IgE	good binding
B2	920 ± 15 CPM	0.9	2122 ± 93 CPM	2.0	1492 ± 13 CPM	1.4	All samples did contain IgE	–
B3	–	–	–	–	–	–	–	binding
B4	–	–	–	–	–	–	–	binding
